Experimental data as given in publication PMC11929908 (Nature Communications, 2025).
Blank lines part the entries; values can stand above or below the molecule they belong to.

Tests used:
[1] = molecular target: PsiD R135A/Q136A (Psilocybe cubensis) (UniProt P0DPA6); assay: SEC
SEC = molecular target: the molecule itself; assay: SEC
crystal structure [2] = molecular target: the molecule itself; assay: crystal structure
crystal structure [3] = molecular target: the molecule itself; assay: crystal structure; remark: listed apart in the source

stoichiometry N [1]: 2
Molecule: PsiD R135A/Q136A (from UniProt P0DPA6 1-402) (enzyme)

B1: PsiD (1–439) S403A (enzyme, Psilocybe cubensis, UniProt P0DPA6 1-439, looked up)
chain: MQVIPACNSAAIRSLCPTPESLRNMGWLSVSDAVYSEFIGELATRASNRNYSNEFGLMQPIQEFKAFIESDPVVHQEFIDMFEGIQDSPRNYQELCNMFNDIFRKAPVYGDLGPPVYMIMAKLMNTRAGFSAFTRQRLNLHFKKLFDTWGLFLSSKDSRNVLVADQFDDRHCGWLNERALSAMVKHYNGRAFDEVFLCDKNAPYYGFNSYDDFFNRRFRNRDIDRPVVGGVNNTTLISAACESLSYNVSYDVQSLDTLVFKGETYSLKHLLNNDPFTPQFEHGSILQGFLNVTAYHRWHAPVNGTIVKIINVPGTYFAQAPSTIGDPIPDNDYDPPPYLKSLVYFSNIAARQIMFIEADNKEIGLIFLVFIGMTEISTCEATVSEGQHVNRGDDLGMFHFGGASFALGLRKDCRAEIVEKFTEPGTVIRINEVVAALKA
stoichiometry N (SEC): 2

B2: L-tryptophan decarboxylase PsiD, full-length (1–439), wildtype, self-cleaved mature enzyme (enzyme, Psilocybe cubensis)
chain 1: MQVIPACNSAAIRSLCPTPESLRNMGWLSVSDAVYSEFIGELATRASNRNYSNEFGLMQPIQEFKAFIESDPVVHQEFIDMFEGIQDSPRNYQELCNMFNDIFRKAPVYGDLGPPVYMIMAKLMNTRAGFSAFTRQRLNLHFKKLFDTWGLFLSSKDSRNVLVADQFDDRHCGWLNERALSAMVKHYNGRAFDEVFLCDKNAPYYGFNSYDDFFNRRFRNRDIDRPVVGGVNNTTLISAACESLSYNVSYDVQSLDTLVFKGETYSLKHLLNNDPFTPQFEHGSILQGFLNVTAYHRWHAPVNGTIVKIINVPGTYFAQAPSTIGDPIPDNDYDPPPYLKSLVYFSNIAARQIMFIEADNKEIGLIFLVFIGMTEISTCEATVSEGQHVNRGDDLGMFHFGG
chain 2: SSFALGLRKDCRAEIVEKFTEPGTVIRINEVVAALKA
modifications: pyruvoyl prosthetic group at 403 (Pvl403, formed from Ser403)
stoichiometry N (crystal structure [2]): 2

B3: PsiD (50–439), self-cleaved, co-crystallised with L-tryptophan (domain or fragment, Psilocybe cubensis)
chain 1: NYSNEFGLMQPIQEFKAFIESDPVVHQEFIDMFEGIQDSPRNYQELCNMFNDIFRKAPVYGDLGPPVYMIMAKLMNTRAGFSAFTRQRLNLHFKKLFDTWGLFLSSKDSRNVLVADQFDDRHCGWLNERALSAMVKHYNGRAFDEVFLCDKNAPYYGFNSYDDFFNRRFRNRDIDRPVVGGVNNTTLISAACESLSYNVSYDVQSLDTLVFKGETYSLKHLLNNDPFTPQFEHGSILQGFLNVTAYHRWHAPVNGTIVKIINVPGTYFAQAPSTIGDPIPDNDYDPPPYLKSLVYFSNIAARQIMFIEADNKEIGLIFLVFIGMTEISTCEATVSEGQHVNRGDDLGMFHFGG
chain 2: SSFALGLRKDCRAEIVEKFTEPGTVIRINEVVAALKA
modifications: pyruvoyl prosthetic group at 403 (Pvl403, formed from Ser403)
stoichiometry N (crystal structure [3]): 2
